Measured values reported in article PMC2702692.

Biological target: BSA-glycopolymer conjugate 10 (glycoprotein mimic 10) (bovine) (UniProt P02769)
Assay: SPR

Sequence of UniProt P02769 (P02769 25-607): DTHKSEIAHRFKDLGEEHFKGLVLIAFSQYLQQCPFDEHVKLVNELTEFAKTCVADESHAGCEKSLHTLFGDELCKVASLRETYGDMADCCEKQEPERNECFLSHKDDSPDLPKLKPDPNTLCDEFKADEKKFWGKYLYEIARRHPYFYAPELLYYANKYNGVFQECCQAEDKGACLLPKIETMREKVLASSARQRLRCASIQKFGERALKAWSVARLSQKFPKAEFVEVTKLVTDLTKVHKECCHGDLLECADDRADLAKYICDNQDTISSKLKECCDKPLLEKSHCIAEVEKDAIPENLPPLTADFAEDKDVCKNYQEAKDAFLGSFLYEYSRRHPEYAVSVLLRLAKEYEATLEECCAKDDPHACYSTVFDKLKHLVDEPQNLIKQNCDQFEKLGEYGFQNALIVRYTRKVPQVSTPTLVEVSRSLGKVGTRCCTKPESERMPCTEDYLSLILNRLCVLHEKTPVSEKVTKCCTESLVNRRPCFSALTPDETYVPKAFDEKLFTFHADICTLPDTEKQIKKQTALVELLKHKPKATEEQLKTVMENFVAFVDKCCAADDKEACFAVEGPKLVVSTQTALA

koff: 0.00073 s⁻¹ | kon: 120000 M⁻¹ s⁻¹
Substance: recombinant rat mannose-binding lectin (MBL) (from UniProt P19999 18-238) (natural protein)
